Tests used:
[1] = target: FcRs expressed by THP-1 cells; assay: flow cytometry on THP-1 cells (self-expressing FcRs), anti-human IgG-Fc PE
[2] = target: human FcγRIIb (human) (UniProt P31994); assay: flow cytometry on CHOS-hCD32b cells (overexpressing human FcγRIIb), anti-human IgG-Fc PE
Sequence of human FcγRIIb (human) (P31994 43-310): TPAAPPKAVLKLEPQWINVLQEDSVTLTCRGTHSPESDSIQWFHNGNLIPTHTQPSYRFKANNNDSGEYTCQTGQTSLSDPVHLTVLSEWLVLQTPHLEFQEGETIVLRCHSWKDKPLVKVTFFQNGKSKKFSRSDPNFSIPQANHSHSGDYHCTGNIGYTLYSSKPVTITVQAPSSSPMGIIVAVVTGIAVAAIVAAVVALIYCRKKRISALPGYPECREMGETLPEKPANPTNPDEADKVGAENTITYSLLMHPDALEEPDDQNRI

Substance | EC50 [1] [nM] | EC50 [2] [nM]
Trastuzumab (antibody) | 0.731 | 
Pertuzumab (antibody) | 0.716 | 1.35
Urelumab (antibody) | 0.462 | 
